Article PMC2817712
pKd: −log10 of the molar value.

Biological target: CheY6 (wild type) with an engineered C-terminal biotinylation tag, for SPR surfaces (R. sphaeroides)
Experiment: SPR; Biacore T100, 25°C; response regulator biotinylated in a C-terminal tag and held on streptavidin (200-1,500 RU); CheA3P1 injected at 120 nM to 2 mM; standard buffer (30 mM Hepes pH 7.5, 150 mM NaCl, 5 mM sodium acetate, 2 mM manganese chloride, 2 mM TCEP) with 0.05% Tween 20; equilibrium binding, 1:1 Langmuir model

Chain of CheY6 (wild type) with an engineered C-terminal biotinylation tag, for SPR surfaces (R. sphaeroides) (Q8KLS1 entry or part of it, stated change not applied): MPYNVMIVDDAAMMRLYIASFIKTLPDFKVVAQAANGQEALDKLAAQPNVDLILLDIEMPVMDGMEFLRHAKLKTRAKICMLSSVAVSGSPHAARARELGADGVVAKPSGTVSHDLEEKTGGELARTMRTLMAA

- pKd: 3.66
Substance: CheA3P1, the isolated P1 (Hpt, histidine-containing phosphotransfer) domain of CheA3 (residues 1-135), unphosphorylated (domain or fragment)
